Assays:
[1] = molecular target: the molecule itself; assay: AUC; sedimentation velocity, SEC buffer, 20 °C, 42 000 rpm; P-PI4KB alone (20 µM) and with Rab11; stoichiometries independent of Rab11 nucleotide state
pseudo-wt PI4KB = molecular target: T1, pseudo-wt PI4KB (human, UniProt Q9UBF8 1-816, internal deletion of a disordered loop (residues 423-522)); assay: SAXS; ACBD3 and pseudo-wt PI4KB mixed 1:1, dialyzed against 20 mM Tris pH 8, 200 mM NaCl, 2 mM TCEP, 1% glycerol; 3.0 and 4.5 mg/ml; conditions: both partners purified
T1 construct: phosphatidylinositol 4-kinase IIIβ (PI4KB) with intact N-terminus, containing only the internal deletion (residues 423-522)

[2] = molecular target: T2, pseudo-wt PI4KB labeled with Atto488 (human, UniProt Q9UBF8 1-816, internal deletion of a disordered loop (residues 423-522), Atto488 (maleimide labelling)); assay: GUV recruitment (confocal microscopy); ACBD3 tethered to GUVs with DGS-NTA(Ni); Atto488-PI4KB and mCherry-Rab11 in solution, each approximately 50 nM; conditions: both partners purified
T2 construct: phosphatidylinositol 4-kinase IIIβ (PI4KB) with intact N-terminus, containing only the internal deletion (residues 423-522); also called Atto488 labeled PI4KB; wild type PI4KB
T2 sequence (Q9UBF8 other isoform, or with tags, fused parts or gaps with the stated changes): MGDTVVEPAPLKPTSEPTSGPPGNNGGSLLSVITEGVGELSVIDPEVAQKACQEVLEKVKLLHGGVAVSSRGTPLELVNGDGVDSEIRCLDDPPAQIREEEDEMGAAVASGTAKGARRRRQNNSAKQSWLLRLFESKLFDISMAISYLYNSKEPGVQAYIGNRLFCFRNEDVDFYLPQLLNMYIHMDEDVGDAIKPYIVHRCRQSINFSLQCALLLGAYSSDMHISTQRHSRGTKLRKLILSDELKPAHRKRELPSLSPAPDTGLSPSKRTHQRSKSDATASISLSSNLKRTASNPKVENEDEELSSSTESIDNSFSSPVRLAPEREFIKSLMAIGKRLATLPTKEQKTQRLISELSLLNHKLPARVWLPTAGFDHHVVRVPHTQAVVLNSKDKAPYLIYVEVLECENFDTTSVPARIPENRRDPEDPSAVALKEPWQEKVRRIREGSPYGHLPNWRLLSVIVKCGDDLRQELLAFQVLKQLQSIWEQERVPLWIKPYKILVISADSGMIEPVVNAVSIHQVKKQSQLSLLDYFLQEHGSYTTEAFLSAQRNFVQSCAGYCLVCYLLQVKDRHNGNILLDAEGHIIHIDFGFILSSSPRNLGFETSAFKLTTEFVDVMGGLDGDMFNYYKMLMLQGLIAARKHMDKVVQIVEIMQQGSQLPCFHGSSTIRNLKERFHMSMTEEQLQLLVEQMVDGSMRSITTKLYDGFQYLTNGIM

T1 sequence (Q9UBF8 other isoform, or with tags, fused parts or gaps with the stated changes): as above

B1: phosphorylated PI4KB (residues 128-799, internal deletion 423-522, T292R, phosphorylated at S294 by PKA) (enzyme, human, UniProt Q9UBF8 128-799, looked up)
chain: SWLLRLFESKLFDISMAISYLYNSKEPGVQAYIGNRLFCFRNEDVDFYLPQLLNMYIHMDEDVGDAIKPYIVHRCRQSINFSLQCALLLGAYSSDMHISTQRHSRGTKLRKLILSDELKPAHRKRELPSLSPAPDTGLSPSKRTHQRSKSDATASISLSSNLKRRASNPKVENEDEELSSSTESIDNSFSSPVRLAPEREFIKSLMAIGKRLATLPTKEQKTQRLISELSLLNHKLPARVWLPTAGFDHHVVRVPHTQAVVLNSKDKAPYLIYVEVLECENFDTTSVPARIPENRRDPEDPSAVALKEPWQEKVRRIREGSPYGHLPNWRLLSVIVKCGDDLRQELLAFQVLKQLQSIWEQERVPLWIKPYKILVISADSGMIEPVVNAVSIHQVKKQSQLSLLDYFLQEHGSYTTEAFLSAQRNFVQSCAGYCLVCYLLQVKDRHNGNILLDAEGHIIHIDFGFILSSSPRNLGFETSAFKLTTEFVDVMGGLDGDMFNYYKMLMLQGLIAARKHMDKVVQIVEIMQQGSQLPCFHGSSTIRNLKERFHMSMTEEQLQLLVEQMVDGSMRS
modifications: phosphoserine at 294 (in vitro by protein kinase A)
notes: phosphatidylinositol 4-kinase IIIβ (PI4KB), residues 128-799 with internal deletion of a disordered loop (residues 423-522) and T292R; also called P-PI4KB; phosphatidylinositol 4-kinase IIIβ; source: phosphorylated in vitro by PKA; Mono Q, SEC
stoichiometry N [1]: 2

B2: ACBD3 (Acyl-CoA-binding domain-containing protein), tag cleaved (natural protein, UniProt Q9H3P7 1-528, looked up)
chain: MAAVLNAERLEVSVDGLTLSPDPEERPGAEGAPLLPPPLPPPSPPGSGRGPGASGEQPEPGEAAAGGAAEEARRLEQRWGFGLEELYGLALRFFKEKDGKAFHPTYEEKLKLVALHKQVLMGPYNPDTCPEVGFFDVLGNDRRREWAALGNMSKEDAMVEFVKLLNRCCHLFSTYVASHKIEKEEQEKKRKEEEERRRREEEERERLQKEEEKRRREEEERLRREEEERRRIEEERLRLEQQKQQIMAALNSQTAVQFQQYAAQQYPGNYEQQQILIRQLQEQHYQQYMQQLYQVQLAQQQAALQKQQEVVVAGSSLPTSSKVNATVPSNMMSVNGQAKTHTDSSEKELEPEAAEEALENGPKESLPVIAAPSMWTRPQIKDFKEKIQQDADSVITVGRGEVVTVRVPTHEEGSYLFWEFATDNYDIGFGVYFEWTDSPNTAVSVHVSESSDDDEEEEENIGCEEKAKKNANKPLLDEIVPVYRRDCHEEVYAGSHQYPGRGVYLLKFDNSYSLWRSKSVYYRVYYTR
notes: ACBD3 with ACBD, CAR, Q and GOLD domains; no limits of the construct are printed; not shown: His6-GB1, N-terminal, cleaved
binding result (pseudo-wt PI4KB): binds

B3: ACBD3 with N-terminal 6xHis-GB1 tag (for GUV reconstitution) (natural protein, UniProt Q9H3P7 1-528, looked up)
chain: MAAVLNAERLEVSVDGLTLSPDPEERPGAEGAPLLPPPLPPPSPPGSGRGPGASGEQPEPGEAAAGGAAEEARRLEQRWGFGLEELYGLALRFFKEKDGKAFHPTYEEKLKLVALHKQVLMGPYNPDTCPEVGFFDVLGNDRRREWAALGNMSKEDAMVEFVKLLNRCCHLFSTYVASHKIEKEEQEKKRKEEEERRRREEEERERLQKEEEKRRREEEERLRREEEERRRIEEERLRLEQQKQQIMAALNSQTAVQFQQYAAQQYPGNYEQQQILIRQLQEQHYQQYMQQLYQVQLAQQQAALQKQQEVVVAGSSLPTSSKVNATVPSNMMSVNGQAKTHTDSSEKELEPEAAEEALENGPKESLPVIAAPSMWTRPQIKDFKEKIQQDADSVITVGRGEVVTVRVPTHEEGSYLFWEFATDNYDIGFGVYFEWTDSPNTAVSVHVSESSDDDEEEEENIGCEEKAKKNANKPLLDEIVPVYRRDCHEEVYAGSHQYPGRGVYLLKFDNSYSLWRSKSVYYRVYYTR
notes: ACBD3 with ACBD, CAR, Q and GOLD domains; Tethered to GUVs that contain DGS-NTA(Ni); also called membrane tethered ACBD3; not shown: His6-GB1, N-terminal, kept
binding result [2]: binds
